Reference: US20250376498A1, “FUSION PROTEINS COMPRISING AN IMPROVED GLP-1 RECEPTOR AGONIST AND USES THEREOF” (Guangzhou Innogen Pharmaceutical Group Co., Ltd., priority 2022, published 2025)
Where “and” joins values, the source holds several entries; their conditions need not be identical. Identical values can stand only once.

Assays:
obese rhesus monkeys = test: Obese rhesus monkeys, body weight; format: in vivo; details: for body weight decrease compared to baseline: at D28
Source text: The obese rhesus monkeys used in this study were sourced from Sichuan Primate Biotechnology Co., Ltd. Fifteen male obese rhesus monkeys, aged 8-21 years (equivalent to 30-60 years in humans), with a body weight of 9.25-15.70 kg, fasting plasma glucose (FPG) levels between 5.50-8.58 mmol/L, and HbA1c levels between 4.5-5.0%, were selected. These monkeys were within the first year of disease onset and had not received any medication. Their liver and kidney functions were normal. The animals were stratified based on FPG levels and randomly assigned to different groups. The selected animals underwent an intravenous glucose tolerance test (IVGTT) to measure blood glucose and insulin levels before the administration of the test compounds. The experimental groups included a placebo group and two YN-011 treatment groups: YN-011 50 μg/kg and YN-011 25 μg/kg, with 5 animals in each group. The treatments were administered via subcutaneous injections (SC) once a week for 4 consecutive weeks, specifically on Day 0 (DO), Day 7 (D7), Day 14 (D14), and Day 21 (D21).

NASH Rhesus monkeys = test: NASH Rhesus monkeys, MRI-PDFF quantitative analysis of hepatic steatosis; format: in vivo; details: for percentage reduction of MRI-PDFF liver fat compared to baseline: end of the treatment; for Change rate (%) of liver lipid content: (current - baseline)/baseline
Source text: The GE 3.0T MRI scanner (750W3T MRI, GE Healthcare) was used for liver imaging in this study. The IDEAL-IQ sequence was employed, which combines the IDEAL (Iterative Decomposition of water and fat with Echo Asymmetry and Least-squares estimation) technique with fast three-dimensional multi-echo imaging. This technique includes multi-echo water-fat separation, region-growing algorithm, as well as various imaging methods for tissue fat quantification and R2* relaxation rate. Six contrast images, including in-phase, opposed-phase, water-only, fat-only, fat fraction maps, and R2* maps, were acquired through a single breath-hold scan by collecting signals from six different echo time (TE) values. The images were reconstructed using computer algorithms to obtain the aforementioned contrast images. The IDEAL-IQ hybrid water-fat separation algorithm consisted of two steps. The first step involved complex domain reconstruction to obtain water and fat images, as well as the T2* map. The second step generated an additional set of estimated water and fat images. These two sets of images were then combined using a hybrid algorithm to generate the final water and fat images.
Prior to conducting the experiment, a Phantom test was performed. Five standard fat solutions with known fat content were prepared by modifying the body phantom preparation method used by Clare P. et al.. Pure water was used as 0% fat. Sodium dodecyl sulfate (60 mmol) was dissolved in 1 L of deionized water, heated to 50° C., and then 40 g of gelatin was added and mixed thoroughly. […] of the aforementioned solution, respectively, to prepare solutions with fat contents of 0%, 2.5%, 5%, 10%, 20%, and 100%. These solutions were filled into six 100 ml EP tubes for subsequent scanning procedures.
Phantom validation experiments were performed before each scan. All animals underwent a baseline scan and one additional scan after the completion of the drug administration, totaling two scans. The anesthesia procedure was as follows: intramuscular injection of 10 mg/kg ketamine hydrochloride, endotracheal intubation, and maintenance of anesthesia with isoflurane and oxygen using a ventilator. During the scanning process, veterinary monitoring of electrocardiogramad oxygenation, respiratory rate, etc., was performed, and veterinary supervision was provided until the animals fully recovered consciousness and resumed spontaneous respiration.
Image Post-processing and Analysis: The collected and stored Hepatic steatosis MRI images of Rhesus monkeys were analyzed using the 750W 3T MRI workstation. The liver MRI images were selected by choosing the planes with the maximum exposure of the right hepatic lobe area (layers 1-3), avoiding large blood vessels, bile ducts, and gallbladder to prevent volume effects. Regions of interest (ROI) were selected, with each ROI having an area of 90-110 mm^2. Hepatic steatosis was defined as MRI-PDFF % (Magnetic Resonance Imaging Proton Density Fat Fraction)>6% (consistent with clinical standards).
Fifteen Rhesus monkeys were divided into 3 groups, with 5 monkeys in each group. They received subcutaneous injections of 0 (solvent control, placebo control group), 0.050, or 0.150 mg/kg of YN-011 once a week for 13 weeks (QW). The 0.150 mg/kg YN-011 group received adaptive dosing (0.1 mg/kg for the first dose, followed by 0.150 mg/kg for the remaining 12 doses).

[1] = Determination of oxidation levels by LC-MS/MS; format: physicochemical
Protocol: Following the protein oxidation measurement method described in Example 2 or by referring to Bettinger et al., the oxidation levels were determined. It was observed that the GLP-1 fusion protein YN-011 of the present invention was not oxidized at position W31, whereas the oxidation level of […] at the same position exceeded 5%. The oxidation occurred at the location indicated by the rectangular box in the structure of W31.

DIO mice = test: High-fat diet-induced obese (DIO) mice; format: in vivo
Protocol: The effects of multiple administrations of YN-011 on glucose tolerance, insulin sensitivity, metabolism, and weight reduction were evaluated in high-fat diet (HFD)-induced obese mice. Male C57BL/6 mice, 5 months old (obtained from commercial sources such as Shanghai Slake Experimental Animals Co., Ltd., under standard housing conditions), were fed with an HFD (60% of total calories from fat, 20% from carbohydrates) for 6 months to establish the diet-induced obesity (DIO) mouse model. The DIO mice (weighing >50 g) were then divided into two groups (5 animals per group), with the experimental group receiving subcutaneous injections of 0.3 mg/kg of YN-011 twice a week (BIW) and the control group receiving phosphate-buffered saline (PBS) injections. The treatment was administered for 4 weeks.

[2] = 0.3 mg/kg sc BIW, 4 weeks, P<0.001

B1: YN-011: GLP-1 fusion protein of SEQ ID NO: 7: GLP-1 (A8G, G22E, R36G), linker peptide and IgG2/Fc domain (C222S, A330S, P331S) (protein)
chain: HGEGTFTSDVSSYLEEQAAKEFIAWLVKGGGSSGAPPPSGGGGSERKSCVECPPCPAPPVAGPSVFLFPPKPKDTLMISRTPEVTCVVVDVSHEDPEVQFNWYVDGVEVHNAKTKPREEQFNSTFRVVSVLTVVHQDWLNGKEYKCKVSNKGLPSSIEKTISKTKGQPREPQVYTLPPSREEMTKNQVSLTCLVKGFYPSDIAVEWESNGQPENNYKTTPPMLDSDGSFFLYSKLTVDKSRWQQGNVFSCSVMHEALHNHYTQKSLSLSPG
- BW (obese rhesus monkeys; 25 μg/kg SC once a week, D 1 baseline value (before administration)): 12.72 kg
- BW (obese rhesus monkeys; 25 μg/kg SC once a week, D 7): 12.39 kg
- BW (obese rhesus monkeys; 25 μg/kg SC once a week, D 14): 12.16 kg
- BW (obese rhesus monkeys; 25 μg/kg SC once a week, D 21): 12.06 kg
- BW (obese rhesus monkeys; 25 μg/kg SC once a week, D 28): 11.84 kg
- BW (obese rhesus monkeys; 25 μg/kg SC once a week, D 35): 12.05 kg
- BW (obese rhesus monkeys; 25 μg/kg SC once a week, D 42): 12.03 kg
- BW compared to the placebo group (obese rhesus monkeys; 25 μg/kg, D14 and D21 (P<0.05)): significantly decreased
- body weight decrease compared to baseline (obese rhesus monkeys; 25 μg/kg): 6.17%
- BW (obese rhesus monkeys; 50 μg/kg SC once a week, D 1 baseline value (before administration)): 10.29 kg
- BW (obese rhesus monkeys; 50 μg/kg SC once a week, D 7): 9.85 kg
- BW (obese rhesus monkeys; 50 μg/kg SC once a week, D 14): 9.64 kg
- BW (obese rhesus monkeys; 50 μg/kg SC once a week, D 21): 9.63 kg
- BW (obese rhesus monkeys; 50 μg/kg SC once a week, D 28): 9.52 kg
- BW (obese rhesus monkeys; 50 μg/kg SC once a week, D 35): 9.79 kg
- BW (obese rhesus monkeys; 50 μg/kg SC once a week, D 42): 9.81 kg
- body weight decrease compared to baseline (obese rhesus monkeys; 50 μg/kg): 7.32%
- BW compared to the placebo group (obese rhesus monkeys; 50 μg/kg, from D7 to D28 (P<0.05 or P<0.01)): significantly or extremely significantly decreased
- percentage reduction of MRI-PDFF liver fat compared to baseline (NASH Rhesus monkeys; 50 μg/kg): 43.8%
- Average ROI Baseline (%) (liver lipid content, MRI-PDFF) (NASH Rhesus monkeys; 0.05 mg/kg group, 0.05 mg/kg): 9.0%±0.9% and 9.0 ± 0.9%
- Mean ROI at day 80 of dosing (%) (liver lipid content, MRI-PDFF) (NASH Rhesus monkeys; 0.05 mg/kg sc QW, 0.05 mg/kg): 5.0%±0.2% and 5.0 ± 0.2** %
- Change rate (%) of liver lipid content (NASH Rhesus monkeys; 0.05 mg/kg sc QW): −43.8 ± 7.4 %
- Average ROI Baseline (%) (liver lipid content, MRI-PDFF) (NASH Rhesus monkeys; 0.15 mg/kg group, 0.15 mg/kg): 9.4%±1.5% and 9.4 ± 1.5%
- Mean ROI at day 80 of dosing (%) (liver lipid content, MRI-PDFF) (NASH Rhesus monkeys; 0.15 mg/kg sc QW, 0.15 mg/kg): 5.6%±1.5% and 5.6 ± 1.5** %
- Change rate (%) of liver lipid content (NASH Rhesus monkeys; 0.15 mg/kg sc QW): −39.7 ± 14.2 %
- percentage reduction of MRI-PDFF liver fat compared to baseline (NASH Rhesus monkeys; 150 μg/kg): 39.7%
- decrease of liver lipid content compared to the placebo control group (NASH Rhesus monkeys; after 13 weeks of weekly treatment): approximately 40%
- oxidation level at position W31 [1]: not oxidized
- UcP1 expression in BAT and epididymal WAT (DIO mice): no effect
- Ucp1 expression in inguinal WAT (DIO mice): significantly upregulated
- body weight (DIO mice; 0.3 mg/kg sc BIW, 4 weeks): significantly reduced
- ectopic lipid accumulation and hepatic triglycerides (DIO mice; 0.3 mg/kg sc BIW, 4 weeks): significantly reduced
- weight of other tissues (BAT, inguinal WAT, pancreas, calf muscle) (DIO mice; 0.3 mg/kg sc BIW, 4 weeks): no impact
- AST levels (DIO mice; 0.3 mg/kg sc BIW, 4 weeks, Ctrl 145.6±16.8, P<0.05): 72.20±19.29
- serum ALT levels (DIO mice; 0.3 mg/kg sc BIW, 4 weeks, Ctrl 153.4±18.7, P<0.01): 34.2±7.7
- reduction in non-esterified fatty acids (NEFA) (DIO mice; [2]): 57%
- reduction in total cholesterol (TC) (DIO mice; [2]): 30%
- reduction in triglycerides (TG) (DIO mice; [2]): 68%
- visceral fat, particularly epididymal fat content (DIO mice; 0.3 mg/kg sc BIW, 4 weeks, vs PBS control): significant decrease
- blood glucose (DIO mice; after 4 weeks of treatment, glucose fluctuation / IPGTT, P<0.01): significantly reduced
- insulin sensitivity (DIO mice; after 4 weeks of treatment, insulin tolerance, P<0.01): improved insulin sensitivity
- core body temperature (DIO mice; at room temperature): higher core body temperature
- VO2, VCO2 and EE normalized to body weight (DIO mice; during the night): significantly increased
- food consumption (DIO mice; multiple administrations vs control): significant decrease
- metabolic rate (VO2 and VCO2) and energy expenditure (EE) (DIO mice; not normalized, without statistical significance): increasing trend
